Blank lines part the entries; values can stand above or below the molecule they belong to.
Key:
[1] = target: Wild type CCR5, endogenous on human monocyte-derived macrophages (human (endogenous in monocyte-derived macrophages)) (UniProt P51681)
[2] = target: Wild type CCR5, endogenous on human monocyte-derived macrophages (human (endogenous in monocyte-derived macrophages)), P51681; test: radioligand binding; competition: human macrophages (membranes) pretreated with different amounts of CCR5-T4L or CCL5, or CCL5 plus CCR5-T4L; specific binding of 0.3 nmol/L [125I]-CCL5, 2 h at 37°C, unbound ligand removed through a 10% sucrose/PBS cushion, gamma counting; details: remark: other sources report otherwise

Molecule: Soluble recombinant CCR5-T4L protein (receptor)
[35S]GTPγS binding to membranes of human MDM (G-protein activation), EC50 [1]: 5460 nM

EC50 [2]: 0.046 nM
B1: Chemokine (C-C motif) ligand 5 (CCL5), unlabelled, P13501 24-91 (ligand)
chain: SPYSSDTTPCCFAYIARPLPRAHIKEYFYTSGKCSNPAVVFVTRKNRQVCANPEKKWVREYINSLEMS

Source: paper PMC4496087
